Columns and labels:
Settings in all cases: both partners purified
[1] = target: T1, human CRM1 (HsCRM1), wild type (human, UniProt O14980 1-1071); experiment: differential bleaching; competition titration of MBP-NES to FITC-PKI NES and CRM1 with excess RanGTP; triplicate; fitted with a set of direct titrations
T1 construct: human CRM1 / Exportin-1 (XPO1); Always used together with RanGTP (ScRanGTP in the pull-downs); also called Exportin-1; XPO1

[2] = target: engineered ScCRM1 (residues 1-1058, △377-413, 537DLTVK541 to GLCEQ, V441D) (S. cerevisiae, UniProt P30822 1-1058, △377–413 | 537DLTVK541 to GLCEQ | V441D); experiment: crystal structure; NES peptide bound to the engineered ScCRM1-RanGppNHp-Yrb1p complex; crystallised as in Fung et al., 2015
[3] = target: T1, human CRM1 (HsCRM1), wild type; experiment: pull-down; ~10 µg immobilized GST-NES, 2.5 µM HsCRM1 and 7.5 µM ScRanGTP in 200 µL
[4] = target: T1, human CRM1 (HsCRM1), wild type; experiment: pull-down; ~5 µg immobilized GST-NESs, 500 nM HsCRM1 (wild type or mutant) and 1.5 µM ScRanGTP in 1 mL
[5] = target: T2, human CRM1 mutant HsCRM1(K568M) (human, UniProt O14980 1-1071, K568M); experiment: as above
T2 construct: human CRM1 / Exportin-1 (XPO1) with K568M; Used together with RanGTP
T2 sequence (O14980 whole entry K568M): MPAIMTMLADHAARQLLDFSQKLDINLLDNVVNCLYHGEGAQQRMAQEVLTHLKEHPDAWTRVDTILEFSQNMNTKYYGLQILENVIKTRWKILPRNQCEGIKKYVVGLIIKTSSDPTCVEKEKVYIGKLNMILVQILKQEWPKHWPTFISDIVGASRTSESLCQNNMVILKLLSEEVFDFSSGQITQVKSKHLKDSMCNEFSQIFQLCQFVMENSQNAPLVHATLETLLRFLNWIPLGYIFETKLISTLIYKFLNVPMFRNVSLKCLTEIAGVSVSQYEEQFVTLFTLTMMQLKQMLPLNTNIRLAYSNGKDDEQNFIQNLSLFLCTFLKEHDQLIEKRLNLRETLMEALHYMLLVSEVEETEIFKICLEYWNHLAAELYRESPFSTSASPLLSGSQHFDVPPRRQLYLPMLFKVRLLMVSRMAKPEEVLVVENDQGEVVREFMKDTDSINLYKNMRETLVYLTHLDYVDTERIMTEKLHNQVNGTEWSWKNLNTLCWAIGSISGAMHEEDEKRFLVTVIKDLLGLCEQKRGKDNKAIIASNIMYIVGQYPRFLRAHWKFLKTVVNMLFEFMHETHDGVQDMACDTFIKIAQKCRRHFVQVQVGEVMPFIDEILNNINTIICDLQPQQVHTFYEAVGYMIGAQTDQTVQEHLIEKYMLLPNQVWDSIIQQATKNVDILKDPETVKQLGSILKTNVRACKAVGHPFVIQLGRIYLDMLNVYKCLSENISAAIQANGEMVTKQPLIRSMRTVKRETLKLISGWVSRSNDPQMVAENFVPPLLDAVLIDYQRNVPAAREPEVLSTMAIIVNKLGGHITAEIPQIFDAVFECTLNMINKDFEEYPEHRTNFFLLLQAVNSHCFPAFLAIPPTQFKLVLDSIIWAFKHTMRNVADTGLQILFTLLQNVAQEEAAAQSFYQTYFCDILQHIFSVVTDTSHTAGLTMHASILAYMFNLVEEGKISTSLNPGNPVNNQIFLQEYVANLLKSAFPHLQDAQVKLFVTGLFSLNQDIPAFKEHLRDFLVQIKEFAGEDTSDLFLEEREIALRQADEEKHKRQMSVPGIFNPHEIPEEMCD

[6] = target: T3, human CRM1 mutant HsCRM1(K568A) (human, UniProt O14980 1-1071, K568A); experiment: as above
T3 construct: human CRM1 / Exportin-1 (XPO1) with K568A; Used together with RanGTP
T3 sequence (O14980 whole entry K568A): as the sequence (O14980 whole entry K568M) above, with M568A counted along it

[7] = target: T2, human CRM1 mutant HsCRM1(K568M); experiment: pull-down; ~5 µg immobilized GST-NESs, 7.5 µM ScRanGTP and 2.5 µM HsCRM1 (wild type or mutant) in 200 µL
[8] = target: T3, human CRM1 mutant HsCRM1(K568A); experiment: as above
[9] = target: engineered ScCRM1(K579A) mutant (S. cerevisiae, UniProt P30822 1-1058, △377–413 | 537DLTVK541 to GLCEQ | V441D | K579A); experiment: crystal structure; NES peptide bound to the engineered ScCRM1-RanGppNHp-Yrb1p complex; crystallised as in Fung et al., 2015

T1 sequence (O14980 whole entry): as the sequence (O14980 whole entry K568M) above, with M568K counted along it

B1: MBP-HDAC5 NES (peptide)
chain: EAETVSAMALLSVG
notes: Histone deacetylase 5 (HDAC5), residues 1082-1095; also called HDAC^NES; MBP-NES; not shown: MBP, N-terminal, kept
binding result [1]: binds

B2: MBP-Paxillin NES (peptide)
chain: RELDELMASLSDFKFMAQ
notes: Paxillin, residues 264-281; also called Pax^NES; MBP-NES; not shown: MBP, N-terminal, kept
binding result [1]: binds

B3: PKI NES(Φ4A) mutant (MBP fusion) (peptide)
chain: NSNELALKLAGLDANKT
Kd [1]: 150 µM

B4: FMRP NES peptide (crystallised) (peptide)
peptide: YLKEVDQLRLERLQI
notes: fragile X mental retardation protein (FMRP), residues 423-437; Extra N-terminal residues such as those printed for mDia2 (GGSY) and FMRP-1b (GGS) may be present; source: expressed and purified as described in Fung et al., 2015
binding result [2]: binds

B5: MBP-X11L2 NES (peptide)
chain: SSLQELVQQFEALPGDLV
notes: also called MBP-NES; not shown: MBP, N-terminal, kept
binding result [1]: binds

B6: SMAD4 NES peptide (crystallised) (peptide)
peptide: YERVVSPGIDLSGLTLQ
notes: Mothers against decapentaplegic homolog 4 (SMAD4), residues 133-149; Extra N-terminal residues such as those printed for mDia2 (GGSY) and FMRP-1b (GGS) may be present; source: expressed and purified as described in Fung et al., 2015
binding result [2]: binds

B7: mDia2 NES peptide (crystallised) (peptide)
peptide: GGSYSVPEVEALLARLRAL
notes: residues printed before the NES in the crystallised peptide; not of mDia2; mouse diaphanous homolog 3 (mDia2), residues 1179-1193; source: expressed and purified as described in Fung et al., 2015
binding result [2]: binds

B8: MBP-SMAD4 NES (peptide)
chain: YERVVSPGIDLSGLTLQ
notes: Mothers against decapentaplegic homolog 4 (SMAD4), residues 133-149; also called MBP-NES; not shown: MBP, N-terminal, kept
binding result [1]: binds

B9: MBP-CDC7 NES (peptide)
chain: QDLRKLCERLRGMDSSTP
notes: cell division cycle 7-related protein kinase (CDC7), residues 456-473; also called MBP-NES; not shown: MBP, N-terminal, kept
binding result [1]: binds

B10: MBP-mDia2 NES (wild type) (peptide)
chain: SVPEVEALLARLRAL
notes: mouse diaphanous homolog 3 (mDia2), residues 1179-1193; also called wild type mDia2^NES; not shown: MBP, N-terminal, kept
Kd [1]: 1.7 µM

B11: GST-CDC7 NES (peptide)
chain: QDLRKLCERLRGMDSSTP
notes: cell division cycle 7-related protein kinase (CDC7), residues 456-473; source: as described in Fung et al., 2015; not shown: GST, N-terminal, kept
binding result [3]: binds

B12: GST-X11L2 NES (peptide)
chain: SSLQELVQQFEALPGDLV
notes: source: as described in Fung et al., 2015; not shown: GST, N-terminal, kept
binding result [4]: binds
binding result [5]: binds
binding result [6]: binds

B13: GST-DEAF1 peptide (false positive NES) (peptide)
chain: SWLYLEEMVNSLLNTAQQ
notes: Deformed Epidermal Autoregulatory Factor 1 homolog (DEAF1), residues 452-469; also called GST-NESs; source: as described in Fung et al., 2015; not shown: GST, N-terminal, kept
binding result [7]: binds
binding result [8]: binds

B14: GST-Hxk2 peptide (false positive NES) (peptide)
chain: DVPKELMQQIENFEKIFTV
notes: Hexokinase-2 (Hxk2), residues 18-36; also called GST-NESs; source: as described in Fung et al., 2015; not shown: GST, N-terminal, kept
binding result [8]: binds

B15: DEAF1 peptide (crystallised, false positive NES) (peptide)
peptide: SWLYLEEMVNSLLNTAQQ
notes: Deformed Epidermal Autoregulatory Factor 1 homolog (DEAF1), residues 452-469; Extra N-terminal residues such as those printed for mDia2 (GGSY) and FMRP-1b (GGS) may be present; also called DEAF^pep; source: expressed and purified as described in Fung et al., 2015
binding result [9]: binds

B16: Paxillin NES peptide (crystallised) (peptide)
peptide: RELDELMASLSDFKFMAQ
notes: Paxillin, residues 264-281; Extra N-terminal residues such as those printed for mDia2 (GGSY) and FMRP-1b (GGS) may be present; also called Pax^NES; source: expressed and purified as described in Fung et al., 2015
binding result [2]: binds

B17: Hxk2 peptide (crystallised, false positive NES) (peptide)
peptide: DVPKELMQQIENFEKIFTV
notes: Hexokinase-2 (Hxk2), residues 18-36; Extra N-terminal residues such as those printed for mDia2 (GGSY) and FMRP-1b (GGS) may be present; source: expressed and purified as described in Fung et al., 2015
binding result [9]: binds

B18: X11L2 NES peptide (crystallised) (peptide)
peptide: SSLQELVQQFEALPGDLV
notes: Extra N-terminal residues such as those printed for mDia2 (GGSY) and FMRP-1b (GGS) may be present; source: expressed and purified as described in Fung et al., 2015
binding result [2]: binds

B19: HDAC5 NES peptide (crystallised) (peptide)
peptide: EAETVSAMALLSVG
notes: Histone deacetylase 5 (HDAC5), residues 1082-1095; Extra N-terminal residues such as those printed for mDia2 (GGSY) and FMRP-1b (GGS) may be present; also called HDAC^NES; source: expressed and purified as described in Fung et al., 2015
binding result [2]: binds

B20: CDC7 NES peptide (crystallised) (peptide)
peptide: QDLRKLCERLRGMDSSTP
notes: cell division cycle 7-related protein kinase (CDC7), residues 456-473; Extra N-terminal residues such as those printed for mDia2 (GGSY) and FMRP-1b (GGS) may be present; source: expressed and purified as described in Fung et al., 2015
binding result [2]: binds

B21: MBP-FMRP NES (peptide)
chain: YLKEVDQLRLERLQI
notes: fragile X mental retardation protein (FMRP), residues 423-437; also called MBP-NES; not shown: MBP, N-terminal, kept
binding result [1]: binds

From article PMC5358978, “Nuclear export receptor CRM1 recognizes diverse conformations in nuclear export signals” (eLife, 2017)
